# Laboratory results published in FireProtDB (doi:10.1016/s0022-2836(99)80018-7).
# B1: Ribonuclease wild type, P00648 (protein)
# chain: MMKMEGIALKKRLSWISVCLLVLVSAAGMLFSTAAKTETSSHKAHTEAQVINTFDGVADYLQTYHKLPDNYITKSEAQALGWVASKGNLADVAPGKSIGGDIFSNREGKLPGKSGRTWREADINYTSGFRNSDRILYSSDWLIYKTTDHYQTFTKIR
# Conditions: Bacillus amyloliquefaciens; pH 6.3; 25 °C; Urea; Fluorescence; MES 50 mM; reversible: yes; whole UniProt chain shown
protein,measurement,value
B1,denaturant m value,2.02 kcal/mol/M
same,denaturant midpoint (higher = more stable),4.58 M
same,unfolding free energy,41.5 kJ/mol
